B1: CP-trIL-2 021 (ligand)
chain: LRPRDLISNINVIVLELKGSETTELKHLQSLEEELKPLEEVLNLAQSKNFHTIVEFLNRWITFSQSIISTLTGGGGSGGGGSPTSSSTKKTQLQLEHLLLDLQMILNGIN
B2: CP-trIL-2 022 (ligand)
chain: B1 chain with P37D
B3: CP-trIL-2 011 (ligand)
chain: PTSSSTKKTQLQLEHLLLDLQMILNGINNYKNPLRPRDLISNINVIVLELKGSETTELKHLQSLEEELKPLEEVLNLAQSKNFHTIVEFLNRWITFSQSIISTLT
B4: CP-trIL-2 073 (ligand)
chain: ELKHLQSLEEELKDLEEVLNLAQSKNFHLRPRDLISNINVIVLELKGSETTPTSSSTKKTQLQLEHLLLDLQMILNGINNYKNPTIVEKLNRWITKSQSIISTLT
B5: CP-trIL-2 082 (ligand)
chain: LRPRDLISNINVIVLELKGSETTPTSSSTKKTQLQLEHLLLDLQMILNGINNYKNPTIVEFLNRWITFSQSIISTLTGGGGSGGGGSELKHLQSLEEELKDLEEVLN
B6: CP-trIL-2 032 (ligand)
chain: ELKHLQSLEEELKDLEEVLNLAQSKNFHTIVEFLNRWITFSQSIISTLTGGGGSGGGGSPTSSSTKKTQLQLEHLLLDLQMILNGINNYKNPLRPRDLISNINVIVLELKG
B7: CP-trIL-2 051 (ligand)
chain: PTSSSTKKTQLQLEHLLLDLQMILNGINNYKNPTIVEFLNRWITFSQSIISTLTGGGGSGGGGSELKHLQSLEEELKPLEEVLNLAQSKNFHLRPRDLISNINVIVLELKG
B8: CP-trIL-2 042 (ligand)
chain: TIVEFLNRWITFSQSIISTLTGGGGSGGGGSPTSSSTKKTQLQLEHLLLDLQMILNGINNYKNPLRPRDLISNINVIVLELKGSETTELKHLQSLEEELKDLEEVLN
B9: CP-trIL-2 062 (ligand)
chain: TIVEFLNRWITFSQSIISTLTGGGGSGGGGSELKHLQSLEEELKDLEEVLNLAQSKNFHLRPRDLISNINVIVLELKGSETTPTSSSTKKTQLQLEHLLLDLQMILNGIN

Where a chain is given by its changes, count along the chain named.

The target in one experiment is T1, human intermediate-affinity IL-2 receptor IL-2Rβγ on cells (human, UniProt P14784 27-551; P31785 23-369).
T1 sequence (looked up) 1: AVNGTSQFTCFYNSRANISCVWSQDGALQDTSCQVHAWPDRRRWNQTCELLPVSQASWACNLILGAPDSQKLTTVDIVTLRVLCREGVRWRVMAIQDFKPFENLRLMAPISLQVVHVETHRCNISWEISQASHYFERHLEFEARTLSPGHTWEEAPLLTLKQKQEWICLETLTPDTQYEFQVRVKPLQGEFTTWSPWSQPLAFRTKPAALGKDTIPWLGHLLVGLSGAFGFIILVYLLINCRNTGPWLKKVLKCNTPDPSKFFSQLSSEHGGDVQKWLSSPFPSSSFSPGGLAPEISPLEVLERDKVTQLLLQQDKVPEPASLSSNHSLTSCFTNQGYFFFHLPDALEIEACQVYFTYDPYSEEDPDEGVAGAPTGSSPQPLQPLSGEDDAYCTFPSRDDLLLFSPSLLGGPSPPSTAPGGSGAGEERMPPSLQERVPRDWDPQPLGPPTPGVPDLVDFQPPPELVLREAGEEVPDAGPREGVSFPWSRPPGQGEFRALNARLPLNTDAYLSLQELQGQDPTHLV
T1 sequence (looked up) 2: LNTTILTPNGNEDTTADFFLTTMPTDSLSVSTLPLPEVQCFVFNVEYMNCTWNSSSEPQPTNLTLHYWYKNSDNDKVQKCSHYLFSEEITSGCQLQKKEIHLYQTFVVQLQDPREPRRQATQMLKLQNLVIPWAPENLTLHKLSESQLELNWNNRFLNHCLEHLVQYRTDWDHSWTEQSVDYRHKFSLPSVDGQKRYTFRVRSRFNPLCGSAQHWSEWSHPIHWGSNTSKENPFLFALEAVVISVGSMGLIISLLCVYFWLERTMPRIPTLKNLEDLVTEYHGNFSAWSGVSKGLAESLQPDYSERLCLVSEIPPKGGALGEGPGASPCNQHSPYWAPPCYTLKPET
Description: cell-based or functional assay.
Take B1: the “EC50 (read off the curve): STAT5 phosphorylation in HH cells” value (“EC50 (read off the curve)” for short) is roughly 30 nM.

Consider B2, for which the “EC50 (read off the curve)” value is roughly 20 nM.

Turning to B3, the “EC50 (read off the curve)” value is roughly 6 nM.

The target in a further experiment is T1, human intermediate-affinity IL-2 …. Description: cell-based or functional assay. This is another data set of the same source.
In the case of B4, the “EC50 (read off the curve)” value is roughly 10 nM.

Another experiment has the same target. The experiment is described as follows: cell-based or functional assay. This is another data set of the same source.
For the molecule B2, the “% pSTAT5 in human PBMC at High IL-2v concentration (25 nM per paragraph 254); western blot, pSTAT5/STAT5 normalised to 001 High” value was determined as 38.1%.

In the case of B5, the “% pSTAT5 in human PBMC at High IL-2v concentration (25 nM per paragraph 254); western blot, pSTAT5/STAT5 normalised to 001 High” value was 45.8%.

Consider B6, for which the “% pSTAT5 in human PBMC at High IL-2v concentration (25 nM per paragraph 254); western blot, pSTAT5/STAT5 normalised to 001 High” value stood at 7.6%.

As to B7, the “% pSTAT5 in human PBMC at High IL-2v concentration (25 nM per paragraph 254); western blot, pSTAT5/STAT5 normalised to 001 High” value was determined as 18.2%.

B8: the “% pSTAT5 in human PBMC at High IL-2v concentration (25 nM per paragraph 254); western blot, pSTAT5/STAT5 normalised to 001 High” value amounted to 9.3%.

Consider B9, for which the “% pSTAT5 in human PBMC at High IL-2v concentration (25 nM per paragraph 254); western blot, pSTAT5/STAT5 normalised to 001 High” value was 12.1%.

The target of another experiment is T2, human high-affinity IL-2 receptor IL-2Rαβγ on cells (human, UniProt P01589 22-272; P14784 27-551; P31785 23-369).
T2 sequence (looked up) 1: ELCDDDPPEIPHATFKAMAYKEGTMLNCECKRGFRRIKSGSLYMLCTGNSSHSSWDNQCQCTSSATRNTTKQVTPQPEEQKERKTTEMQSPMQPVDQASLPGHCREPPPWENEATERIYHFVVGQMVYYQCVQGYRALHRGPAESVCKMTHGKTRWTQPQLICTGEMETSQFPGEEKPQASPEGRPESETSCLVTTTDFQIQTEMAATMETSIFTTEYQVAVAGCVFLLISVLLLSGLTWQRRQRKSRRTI
T2 sequence (looked up) 2: T1 sequence (looked up) 1
T2 sequence (looked up) 3: T1 sequence (looked up) 2
The experiment is described as follows: cell-based or functional assay.
Consider B2, for which the “% pSTAT5 in human PBMC at Low IL-2v concentration (2.5 nM per paragraph 254); western blot, pSTAT5/STAT5 normalised to 001 High” value turned out to be 9.1%.

As to B5, the “% pSTAT5 in human PBMC at Low IL-2v concentration (2.5 nM per paragraph 254); western blot, pSTAT5/STAT5 normalised to 001 High” value was 15.6%.

Take B6: the “% pSTAT5 in human PBMC at Low IL-2v concentration (2.5 nM per paragraph 254); western blot, pSTAT5/STAT5 normalised to 001 High” value came out at 10.4%.

As for B7, the “% pSTAT5 in human PBMC at Low IL-2v concentration (2.5 nM per paragraph 254); western blot, pSTAT5/STAT5 normalised to 001 High” value worked out at 9.5%.

Turning to B8, the “% pSTAT5 in human PBMC at Low IL-2v concentration (2.5 nM per paragraph 254); western blot, pSTAT5/STAT5 normalised to 001 High” value stood at 6.2%.

For the molecule B9, the “% pSTAT5 in human PBMC at Low IL-2v concentration (2.5 nM per paragraph 254); western blot, pSTAT5/STAT5 normalised to 001 High” value amounted to 10.7%.

The target of a further experiment is T3, mouse high-affinity IL-2 receptor IL-2Rαβγ on cells (mouse, UniProt P01590 22-268; P16297 27-539; P34902 23-369).
T3 sequence (looked up) 1: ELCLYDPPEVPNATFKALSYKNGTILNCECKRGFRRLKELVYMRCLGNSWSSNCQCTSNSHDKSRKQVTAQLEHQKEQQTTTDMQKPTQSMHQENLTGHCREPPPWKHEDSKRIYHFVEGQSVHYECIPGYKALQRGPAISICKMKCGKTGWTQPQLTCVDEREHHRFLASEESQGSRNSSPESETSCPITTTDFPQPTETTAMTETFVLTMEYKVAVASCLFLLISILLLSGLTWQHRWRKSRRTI
T3 sequence (looked up) 2: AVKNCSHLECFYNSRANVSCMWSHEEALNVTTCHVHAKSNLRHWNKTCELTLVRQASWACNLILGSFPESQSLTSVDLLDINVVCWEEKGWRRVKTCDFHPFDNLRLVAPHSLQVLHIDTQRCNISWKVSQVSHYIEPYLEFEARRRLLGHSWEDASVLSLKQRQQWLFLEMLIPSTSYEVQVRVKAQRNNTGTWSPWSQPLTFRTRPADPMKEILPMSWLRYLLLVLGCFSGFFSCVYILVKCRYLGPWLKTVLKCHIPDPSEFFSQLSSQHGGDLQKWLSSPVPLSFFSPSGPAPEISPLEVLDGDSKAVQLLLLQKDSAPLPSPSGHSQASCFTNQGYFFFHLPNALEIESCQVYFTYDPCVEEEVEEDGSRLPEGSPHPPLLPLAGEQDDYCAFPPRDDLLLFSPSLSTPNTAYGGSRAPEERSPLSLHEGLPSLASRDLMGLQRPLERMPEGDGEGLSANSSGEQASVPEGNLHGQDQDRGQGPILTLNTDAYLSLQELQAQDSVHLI
T3 sequence (looked up) 3: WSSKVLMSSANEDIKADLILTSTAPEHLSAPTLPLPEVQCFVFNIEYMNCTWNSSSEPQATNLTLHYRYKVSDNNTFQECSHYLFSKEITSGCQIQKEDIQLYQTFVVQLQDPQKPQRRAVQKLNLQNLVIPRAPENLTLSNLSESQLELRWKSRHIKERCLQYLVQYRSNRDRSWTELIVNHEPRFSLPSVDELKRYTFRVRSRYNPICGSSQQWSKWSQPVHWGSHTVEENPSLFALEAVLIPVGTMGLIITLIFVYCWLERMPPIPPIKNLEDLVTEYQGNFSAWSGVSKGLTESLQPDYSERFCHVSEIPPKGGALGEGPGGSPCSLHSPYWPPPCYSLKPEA
Description: cell-based or functional assay.
In the case of B2, the “% pSTAT5 in mouse splenocytes at Low IL-2v concentration (2.5 nM per paragraph 254); western blot, pSTAT5/STAT5 normalised to 001 High” value is 24.8%.

For the molecule B5, the “% pSTAT5 in mouse splenocytes at Low IL-2v concentration (2.5 nM per paragraph 254); western blot, pSTAT5/STAT5 normalised to 001 High” value turned out to be 16.7%.

Take B6: the “% pSTAT5 in mouse splenocytes at Low IL-2v concentration (2.5 nM per paragraph 254); western blot, pSTAT5/STAT5 normalised to 001 High” value is 11.5%.

B7: the “% pSTAT5 in mouse splenocytes at Low IL-2v concentration (2.5 nM per paragraph 254); western blot, pSTAT5/STAT5 normalised to 001 High” value turned out to be 14.6%.

Consider B8, for which the “% pSTAT5 in mouse splenocytes at Low IL-2v concentration (2.5 nM per paragraph 254); western blot, pSTAT5/STAT5 normalised to 001 High” value amounted to 13.9%.

In the case of B9, the “% pSTAT5 in mouse splenocytes at Low IL-2v concentration (2.5 nM per paragraph 254); western blot, pSTAT5/STAT5 normalised to 001 High” value turned out to be 13.8%.

Another experiment deals with T4, mouse intermediate-affinity IL-2 receptor IL-2Rβγ on cells (mouse, UniProt P16297 27-539; P34902 23-369).
T4 sequence (looked up) 1: T3 sequence (looked up) 2
T4 sequence (looked up) 2: T3 sequence (looked up) 3
The experiment is described as follows: cell-based or functional assay.
As to B2, the “% pSTAT5 in mouse splenocytes at High IL-2v concentration (25 nM per paragraph 254); western blot, pSTAT5/STAT5 normalised to 001 High” value was found to be 68.5%.

For B5, the “% pSTAT5 in mouse splenocytes at High IL-2v concentration (25 nM per paragraph 254); western blot, pSTAT5/STAT5 normalised to 001 High” value came out at 25.2%.

For the molecule B6, the “% pSTAT5 in mouse splenocytes at High IL-2v concentration (25 nM per paragraph 254); western blot, pSTAT5/STAT5 normalised to 001 High” value amounted to 18.9%.

Regarding B7, the “% pSTAT5 in mouse splenocytes at High IL-2v concentration (25 nM per paragraph 254); western blot, pSTAT5/STAT5 normalised to 001 High” value is 21.8%.

On to B8, for which the “% pSTAT5 in mouse splenocytes at High IL-2v concentration (25 nM per paragraph 254); western blot, pSTAT5/STAT5 normalised to 001 High” value came out at 16.1%.

Regarding B9, the “% pSTAT5 in mouse splenocytes at High IL-2v concentration (25 nM per paragraph 254); western blot, pSTAT5/STAT5 normalised to 001 High” value was found to be 20.5%.
